Experimental findings from paper PMC3954913 (Molecular microbiology, 2014) are described below.

The test addresses T1, pallilysin (Tp0751_C24-P237) (Treponema pallidum, UniProt O83732 24-237).
T1 sequence (looked up): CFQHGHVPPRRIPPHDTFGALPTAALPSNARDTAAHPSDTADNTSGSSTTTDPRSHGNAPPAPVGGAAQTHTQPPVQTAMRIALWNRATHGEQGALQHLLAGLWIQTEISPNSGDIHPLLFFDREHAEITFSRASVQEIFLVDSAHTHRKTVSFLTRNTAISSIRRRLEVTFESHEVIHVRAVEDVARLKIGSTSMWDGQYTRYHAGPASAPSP
Kind of test: dynamic light scattering.

B1: recombinant Tp0750_G23-D223 (natural protein, UniProt O83731 23-223, looked up)
chain: GERTVPVDIFLMIDKSRSMQEPGKFSSLHRWVRDEFVSSMTIQGDWITVYQFYEKPEELITLTLRSEQDRDKIISVVDSIVPNGRYTDIGRALDTVWEIQEKRKDNNRHKVLLLVTDLEHDAPLTSKYRGKQRSFQSPYLVRARRVKHDNWYEITLDMAVHDRVAHTARELYRSIAAAHSKRPTPTPPAKESSPRYTPSLD
Take B1: the binding result is listed as “binds”.
